From paper PMC6572100, “Structure of the Prx6-subfamily 1-Cys peroxiredoxin from Sulfolobus islandicus” (Acta Crystallographica. Section F, Structural Biology …, 2019) come the findings set out here.

Data set [1] concerns the molecule itself. Put plainly: crystal structure; hanging-drop vapor diffusion, 7.5 mg/ml protein in 10 mM Tris-HCl pH 7.5; reservoir 10 mM Tris-HCl pH 7.5, 15% PEG 1500, 0.1 M MgCl2, 283 K; 2.75 Å, space group P212121, ten monomers in the asymmetric unit.
Data set [2] concerns the molecule itself. As to the kind of experiment: SEC; Superdex 200, about 2 mg protein, 50 mM Na2HPO4 pH 7.4, 150 mM NaCl; untreated protein; molecular-weight standard curve. Background: In gel filtration, larger molecules generally elute earlier.

B1: Sulfolobus islandicus 1-Cys peroxiredoxin (1-Cys SiPrx) (enzyme, Sulfolobus islandicus REY15a)
chain: MVSEGRIPLIGEKFPEMEVITTHGKIKLPDDYKGRWFVLFSHPGDFTPVCTTEFYSFSKKYEEFKKLNTELIGLSVDSNISHIEWVMWIEKNLKVEVPFPIIADPMGNVAKRLGMIHAESSTATVRAVFIIDDKGTVRLILYYPMEIGRNIDEILRAIRALQLVDKAGVVTPANWPNNELIGDKVINPAPRTIKDAKMRLGQPFDWWFTYKEVKTT
notes: The residue numbers printed in the text (Cys49, His41, Lys24) are one lower than the positions in the printed construct (C50, H42, K25); surmise: the V at position 2 comes from the NcoI cloning site; Decamer (five homodimers) in the crystal and in solution; also called S. islandicus Bcp2; SiRe_0346; source: E. coli Rosetta, purified (HisTrap FF, dialysis); not shown: His6, C-terminal, kept; …
As usually defined, the stoichiometry N is the number of molecules, sites or subunits per partner or assembly. On to B1, for which the “stoichiometry N” value in data set [1] was 10 subunits; in data set [2], approximately 20 subunits.
